Experimental data reported in patent US20240228562A1 (Pieris, published 2024).
Residue numbers refer to the chain shown, from its start.

T1: mouse CTGF (Abbexa) (mouse, UniProt P29268 26-348, limits assumed)
T1 construct: also called Murine CTGF; mCTGF
T1 sequence (looked up): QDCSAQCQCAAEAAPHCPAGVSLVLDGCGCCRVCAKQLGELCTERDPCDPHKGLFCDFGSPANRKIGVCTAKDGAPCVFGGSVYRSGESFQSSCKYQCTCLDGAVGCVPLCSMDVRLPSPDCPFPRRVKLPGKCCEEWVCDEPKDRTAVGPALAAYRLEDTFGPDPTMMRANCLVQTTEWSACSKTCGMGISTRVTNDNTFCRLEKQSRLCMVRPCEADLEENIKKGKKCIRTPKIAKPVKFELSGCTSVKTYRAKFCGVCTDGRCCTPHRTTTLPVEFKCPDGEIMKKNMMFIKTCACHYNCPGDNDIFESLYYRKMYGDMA

T2: cynomolgus CTGF (cynomolgus, UniProt I7G525 27-349)
T2 construct: also called cyCTGF
T2 sequence: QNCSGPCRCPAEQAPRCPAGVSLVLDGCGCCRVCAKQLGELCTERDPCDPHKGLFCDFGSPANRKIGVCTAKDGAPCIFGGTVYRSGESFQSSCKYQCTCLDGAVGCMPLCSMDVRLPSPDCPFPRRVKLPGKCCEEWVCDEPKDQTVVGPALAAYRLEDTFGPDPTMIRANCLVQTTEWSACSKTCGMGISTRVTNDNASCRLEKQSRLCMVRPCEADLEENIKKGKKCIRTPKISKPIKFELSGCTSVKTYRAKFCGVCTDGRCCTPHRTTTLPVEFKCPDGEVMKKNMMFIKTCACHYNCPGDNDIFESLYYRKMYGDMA

T3: recombinant rat CTGF protein (R&D Systems) (rat, UniProt Q9R1E9 25-347)
T3 construct: Bought; also called rCTGF
T3 sequence: T1 sequence (looked up) with H16R, A148V

T4: recombinant human CTGF protein (R&D Systems, SEQ ID NO: 79) (human, UniProt P29279 27-349)
T4 construct: Bought; also called human CTGF/CNN2; huCTGF
T4 sequence: T2 sequence with A11D, Q13P, V250M

B1: lipocalin mutein of SEQ ID NO: 31 (designed binder)
chain: QDSTSDLIPAPPLSKVPLQQNFQDNQFQGKWYVVGWAGNVKLREDKQPQKMSATIYELKEDKSYDVTEVVFEQKKCHYIIKTFVPGSQPGEFTAGDIKSPPGYTSSLVRVVSTNYNQHAMVFFKKVSQNREFFWITLYGRTKELTSELKENFIRFSKSLGLPENHIVFPVPIDQCIDG
notes: also called hNGAL mutein; not shown: C-terminal His-tag
B2: lipocalin mutein of SEQ ID NO: 34 (designed binder)
chain: B1 chain with K41I, Q49F, A94L, Y103E, S106T
notes: also called hNGAL mutein
B3: lipocalin mutein of SEQ ID NO: 36 (designed binder)
chain: B1 chain with Q49A, S127G
notes: also called hNGAL mutein
B4: lipocalin mutein of SEQ ID NO: 33 (designed binder)
chain: QDSTSDLIPAPPLSKVPLQQNFQDNQFQGKWYVVGWAGNAKLREDKQPFKMSATIYELKEDKSYDVTEVVFEQKKCHYIIKTFVPGSQPGEFTEGNYKRRPRLWSDLVRVVSTNYNQHAMVFFKKVHQNREFFWITLYGRTKELTSELKENFIRFSKSLGLPENHIVFPVPIDQCIDG
notes: as for B1
B5: lipocalin mutein of SEQ ID NO: 35 (designed binder)
chain: B1 chain with Q49L
notes: as for B1
B6: fusion protein of SEQ ID NO: 64 (designed binder)
chain: QDSTSDLIPAPPLSKVPLQQNFQDNQFQGKWYVVGLAGNYRLREDKDPSKMGATIYELKEDKSYDVTQVQFDDKKCLYVIETFVPGSQPGEFTLGAIKSYPGLTSQLVRVVSTNYNQHAMVFVKKVWPNLEYFQIVLYGRTKELTSELKENFIRFSKSLGLPENHIVFPVPIDQCIDGGGGGSGGGGSGGGGSQDSTSDLIPAPPLSKVPLQQNFQDNQFQGKWYVVGLAGNAILREDKQPAKMFATIYELKEDKSYDVTSVRFEAKSCKYTIKTFVPGSQPGEFTAGYIKSAPGQTSTLVRVVSTNYNQHAMVFFKHVTQNREIFVITLYGRTKELTSELKENFIRFSKSLGLPENHIVFPVPIDQCIDG
notes: not shown: C-terminal His-tag
B7: lipocalin mutein of SEQ ID NO: 24 (designed binder)
chain: QDSTSDLIPAPPLSKVPLQQNFQDNQFQGKWYVVGVAGNAILRTDKQPAKMFATIYELKEDKSYDVTSVRFEAKSCKYTIKTFVPGSQPGEFTAGNIKSAPGQTSTLVRVVSTNYNQHAMVFFKHVSQNREIFVITLYGRTKELTSELKENFIRFSKSLGLPENHIVFPVPIDQCIDG
notes: also called hNGAL mutein
B8: fusion protein of SEQ ID NO: 63 (designed binder)
chain: QDSTSDLIPAPPLSKVPLQQNFQDNQFQGKWYVVGRAGNNQLREDKSPPKMWATIYELKEDKSYDVTHVHFSTKKCRYIIDTFVPGSQPGEFTAGAIKSGPGLTSPLVRVVSTNYNQHAMVFFKWVTQNREWFTITLYGRTKELTSELKENFIRFSKSLGLPENHIVFPVPIDQCIDGGGGGSGGGGSGGGGSQDSTSDLIPAPPLSKVPLQQNFQDNQFQGKWYVVGLAGNAILREDKQPAKMFATIYELKEDKSYDVTSVRFEAKSCKYTIKTFVPGSQPGEFTAGYIKSAPGQTSTLVRVVSTNYNQHAMVFFKHVTQNREIFVITLYGRTKELTSELKENFIRFSKSLGLPENHIVFPVPIDQCIDG
notes: not shown: C-terminal His-tag
B9: fusion protein of SEQ ID NO: 68 (designed binder)
chain: QDSTSDLIPAPPLSKVPLQQNFQDNQFQGKWYVVGLAGNAILREDKQPAKMFATIYELKEDKSYDVTSVRFEAKSCSYTSKTFVPGSQPGEFTAGNIKSAPGQTSTLVRVVSTNYNQHAMVFFKHVSQNRETFVITLYGRTKELTSELKENFIRFSKSLGLPENHIVFPVPIDQCIDGGGGGSGGGGSGGGGSQDSTSDLIPAPPLSKVPLQQNFQDNQFQGKWYVVGWAGNVKLREDKQPQKMSATIYELKEDKSYDVTEVVFEQKKCHYIIKTFVPGSQPGEFTAGDIKSPPGYTSSLVRVVSTNYNQHAMVFFKKVSQNREFFWITLYGRTKELTSELKENFIRFSKSLGLPENHIVFPVPIDQCIDG
notes: not shown: C-terminal His-tag
B10: fusion protein of SEQ ID NO: 71 (designed binder)
chain: B9 chain with Q47Y, A73N, S77V, S80I, A94T, T132F
notes: not shown: C-terminal His-tag
B11: fusion protein of SEQ ID NO: 73 (designed binder)
chain: B9 chain with Q47Y, A73N, S77V, A94T, T132F
notes: not shown: C-terminal His-tag
B12: fusion protein of SEQ ID NO: 62 (designed binder)
chain: QDSTSDLIPAPPLSKVPLQQNFQDNQFQGKWYVVGRAGNNQLREDKSPPKMWATIYELKEDKSYDVTHVHFSTKKCRYIIDTFVPGSQPGEFTAGAIKSGPGLTSPLVRVVSTNYNQHAMVFFKWVTQNREWFTITLYGRTKELTSELKENFIRFSKSLGLPENHIVFPVPIDQCIDGGGGGSGGGGSGGGGSQDSTSDLIPAPPLSKVPLQQNFQDNQFQGKWYVVGWAGNVKLREDKQPQKMSATIYELKEDKSYDVTEVVFEQKKCHYIIKTFVPGSQPGEFTAGDIKSPPGYTSSLVRVVSTNYNQHAMVFFKKVSQNREFFWITLYGRTKELTSELKENFIRFSKSLGLPENHIVFPVPIDQCIDG
notes: not shown: C-terminal His-tag

What was measured:
mouse CTGF (Abbexa) = molecular target: T1, mouse CTGF (Abbexa); test: SPR (Biacore)
Method: (§1) The binding of exemplary lipocalin muteins to human (Creative Biomart), cynomolgus, rat (R&D Systems) and mouse CTGF (Abbexa) was determined by SPR using a Biacore instrument (Cytiva, formerly GE Healthcare). Some targets were fused to a human IgG1 Fc tag, and captured via the anti-human IgG antibody kit, others were directly immobilized.
(§2) For some measurements, human CTGF with a human IgG1 Fc Tag or rat or murine CTGF without a tag were directly immobilized to a CM5 Chip. The carboxyl groups on the chip were activated using 1-ethyl-3-(3-dimethylaminopropyl)-carbodiimide (EDC) and N-hydroxysuccinimide (NHS). […] Residual non-reacted NHS-esters were blocked by passing a solution of 1 M ethanolamine across the surface. The reference channel was activated/deactivated. For the capture setting, targets with an IgG Fc Tag at 0.25-2.5 μg/mL in HBS-EP+ buffer were captured by the anti-human IgG-Fc antibody at the chip surface for 180 s at a flow rate of 10 μL/min.
(§3) The binding assay was carried out with a contact time of 180 s, a dissociation time of 900-3600 s and a flow rate of 30 μL/min. All measurements were performed at 25° C. […] For the directly immobilized targets, the same regeneration conditions were used. Prior to the protein measurements, three startup cycles were performed for conditioning purposes.

cynomolgus CTGF = molecular target: T2, cynomolgus CTGF; test: SPR (Biacore)
Method: as §1, §2, §3

[1] = molecular target: T3, recombinant rat CTGF protein (R&D …); test: SPR (Biacore)
Method: as §1, §2, §3

[2] = molecular target: T5, recombinant human CTGF-Fc protein (Creative Biomart) (human); test: SPR (Biacore)
T5 construct: Bought; also called human CTGF with a human IgG1 Fc Tag
Method: as §1, §2, §3

[3] = molecular target: T4, recombinant human CTGF protein (R&D …); test: HTRF, 1 nM biotinylated human CTGF
Method: Binding of some fusion proteins was tested by a Homogeneous Time Resolved Fluorescence (HTRF assay). In detail, 1 nM of biotinylated human CTGF (R&D Systems) was incubated for 1 h with a titration of some lipocalins starting at 5 nM in 384 Flat Bottom White Polystyrol microtiter plate (Greiner). Samples were diluted in PBS containing 0.1% Tween 20 and 2% BSA. As donor, Streptavidin-Terbium at a concentration of 0,006 μg/mL was used, the acceptor was 0.2 μg/mL anti-His-d2 (both CisBio). After another 1 h of incubation, the fluorescence intensity of the donor and acceptor on the plate was read using a fluorescence microplate reader M1000 (Tecan) with the standard settings recommended by CisBio. The calculated ratio of signals was used for the curve fitting performed in GraphPad Prism 7 software.

T5 sequence (chain, as listed by the source limits assumed): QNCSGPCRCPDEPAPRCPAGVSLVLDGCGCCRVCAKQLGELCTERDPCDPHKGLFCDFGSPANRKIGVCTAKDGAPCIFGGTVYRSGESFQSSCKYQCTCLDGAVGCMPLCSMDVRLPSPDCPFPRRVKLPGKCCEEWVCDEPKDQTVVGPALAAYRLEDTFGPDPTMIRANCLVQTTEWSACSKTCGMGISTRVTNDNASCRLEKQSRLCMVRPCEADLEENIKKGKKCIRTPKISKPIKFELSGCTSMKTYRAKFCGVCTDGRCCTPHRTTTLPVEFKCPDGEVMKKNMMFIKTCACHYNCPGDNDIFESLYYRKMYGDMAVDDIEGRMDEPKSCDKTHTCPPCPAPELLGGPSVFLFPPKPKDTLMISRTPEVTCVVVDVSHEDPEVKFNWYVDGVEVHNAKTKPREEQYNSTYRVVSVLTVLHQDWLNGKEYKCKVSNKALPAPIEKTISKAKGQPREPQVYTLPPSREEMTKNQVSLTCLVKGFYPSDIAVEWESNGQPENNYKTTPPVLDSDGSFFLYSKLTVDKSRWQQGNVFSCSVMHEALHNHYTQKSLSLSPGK

Binder	Kd (mouse CTGF (Abbexa))	koff (mouse CTGF (Abbexa))	kon (mouse CTGF (Abbexa))	Kd (cynomolgus CTGF)	koff (cynomolgus CTGF)	kon (cynomolgus CTGF)	Kd [1]	koff [1]	kon [1]	Kd [2]	koff [2]	kon [2]	EC50 [3]
B1	1.58 nM	0.000444 s⁻¹	281000 M⁻¹ s⁻¹	0.452 nM	7.31e-05 s⁻¹	162000 M⁻¹ s⁻¹	1.89 nM	0.000423 s⁻¹	223000 M⁻¹ s⁻¹	0.249 nM	4.85e-05 s⁻¹	195000 M⁻¹ s⁻¹	–
B2	11.9 nM	0.00286 s⁻¹	240000 M⁻¹ s⁻¹	1.72 nM	0.000238 s⁻¹	139000 M⁻¹ s⁻¹	–	–	–	1.13 nM	0.000169 s⁻¹	150000 M⁻¹ s⁻¹	–
B3	1.68 nM	0.00052 s⁻¹	310000 M⁻¹ s⁻¹	0.695 nM	9.77e-05 s⁻¹	141000 M⁻¹ s⁻¹	–	–	–	0.42 nM	6.95e-05 s⁻¹	165000 M⁻¹ s⁻¹	–
B4	0.301 nM	5.29e-05 s⁻¹	176000 M⁻¹ s⁻¹	–	–	–	0.226 nM	6.3e-05 s⁻¹	279000 M⁻¹ s⁻¹	0.099 nM	1.71e-05 s⁻¹	172000 M⁻¹ s⁻¹	–
B5	2.24 nM	0.000287 s⁻¹	128000 M⁻¹ s⁻¹	–	–	–	1.42 nM	0.000273 s⁻¹	193000 M⁻¹ s⁻¹	0.55 nM	5.94e-05 s⁻¹	108000 M⁻¹ s⁻¹	–
B6	–	–	–	–	–	–	–	–	–	–	–	–	0.58 nM
B7	0.034 nM	1.16e-05 s⁻¹	299000 M⁻¹ s⁻¹	0.135 nM	2.63e-05 s⁻¹	195000 M⁻¹ s⁻¹	0.255 nM	3.51e-05 s⁻¹	138000 M⁻¹ s⁻¹	0.09 nM	1.41e-05 s⁻¹	157000 M⁻¹ s⁻¹	–
B8	–	–	–	–	–	–	–	–	–	–	–	–	0.58 nM
B9	–	–	–	–	–	–	–	–	–	–	–	–	0.56 nM
B10	–	–	–	–	–	–	–	–	–	–	–	–	0.94 nM
B11	–	–	–	–	–	–	–	–	–	–	–	–	0.83 nM
B12	–	–	–	–	–	–	–	–	–	–	–	–	0.63 nM
